According to patent US20190100588A1 (published 2019):

T1: Peptide 2a
T1 peptide: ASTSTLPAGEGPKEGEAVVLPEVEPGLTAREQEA

T2: Pep6
T2 peptide: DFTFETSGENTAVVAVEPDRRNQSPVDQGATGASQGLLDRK

T3: recombinant CD138 extracellular domain (soluble CD138) (UniProt P18827 23-250)
T3 chain: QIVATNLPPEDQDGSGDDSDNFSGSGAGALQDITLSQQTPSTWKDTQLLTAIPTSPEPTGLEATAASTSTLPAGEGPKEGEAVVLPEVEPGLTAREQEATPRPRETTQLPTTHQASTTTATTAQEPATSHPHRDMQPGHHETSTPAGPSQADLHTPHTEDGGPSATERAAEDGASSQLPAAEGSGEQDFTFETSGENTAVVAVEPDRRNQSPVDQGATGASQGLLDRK


Assays:
Test in all cases: ELISA
[1] = molecular target: T1, Peptide 2a
[2] = molecular target: T2, Pep6
[3] = molecular target: T3, recombinant CD138 extracellular domain …

Row | Binder | EC50 [1] | EC50 [2] | EC50 [3]
1 | antibody 1610 (antibody, V domains shown) VH: QVQLHQPGTSLVKPGASVKLSCKASGYNFSSYYMHWVKQRPGQGLEWIGTIHPSDSTTNCNQKFKGKATLTVDKSSRTAYMQLNSLTFEDSAVYYCANFVYWGQGTSVTVSS VL: DIVITQDELSNPVTSGDSVSISCRSSKSLLYKDGKTYLNWFLQRPGQSPQLLIYVVSTRASGVSDRFSGSGSGTDFTLEISRVKAEDVGVYYCQQLVEYPYTFGGGTKLEIK | 3.9 ng/mL | 12.3 ng/mL | 2.7 ng/mL
2 | antibody 2510 (antibody, V domains shown) VH: QVQLHQPGTSLVKPGASVKLSCKASGYNFSSYYMHWVKQRPGQGLEWIGTIHPSDSTTNYNQKFKGKATLTVDKSSRTAYMQLNSLTFEDSAVYYCANFVYWGQGTSVTVSS VL: DIVITQDELSNPVTSGDSVSISCRSSKSLLYKDGKTYLNWFLQRPGQSPQLLIYVVSTRASGVSDRFSGSGSGTDFTLEISRVKAEDVGVYYCQQLVEYPYTFGGGTKLEIK | 4.6 ng/mL | 8.9 ng/mL | 4.9 ng/mL

Results, then the binder that gave them:

Row | EC50 [1] | EC50 [2] | EC50 [3] | Binder
3 | 3.8 ng/mL | 4.9 ng/mL | 7 ng/mL | antibody 2610 (antibody, V domains shown) VH: QVQLHQPGTSLVKPGASVKLSCKASGYSFSSYYMHWVKQRPGQGLEWIGTIHPSDSTTNCNQKFKGKATLTVDKSSRTAYMQLNSLTFEDSAVYYCANFVYWGQGTSVTVSS VL: DIVITQDELSNPVTSGDSVSISCRSSKSLLYKDGKTYLNWFLQRPGQSPQLLIYVVSTRASGVSDRFSGSGSGTDFTLEISRVKAEDVGVYYCQQLVEYPYTFGGGTKLEIK
4 | 2.8 ng/mL | 3.2 ng/mL | 5.3 ng/mL | antibody 2810 (antibody, V domains shown) VH: QVQLHQPGTSLVKPGASVKLSCKASGYSFSSYYMHWVKQRPGQGLEWIGTIHPSDSTTNYNQKFKGKATLTVDKSSRTAYMQLNSLTFEDSAVYYCANFVYWGQGTSVTVSS VL: DIVITQDELSNPVTSGDSVSISCRSSKSLLYKDGKTYLNWFLQRPGQSPQLLIYVVSTRASGVSDRFSGSGSGTDFTLEISRVKAEDVGVYYCQQLVEYPYTFGGGTKLEIK
